In US11666658B2, “Rifamycin analogs and antibody-drug conjugates thereof” (Regeneron Pharmaceuticals, Inc., priority 2018, dated 2023):
Changes are numbered by the printed parent chain. Names may count otherwise.

B1: H1H21227N-N297Q: "modified versions of 21227N (H1H21227N-N297Q and H1H21227N-N297D)"; anti-MSR1 antibody "with a N297Q single point mutation" (antibody, V domains shown)
VH: QVQLVQSGAEVKKPGASVKVSCKVSGYTLTELSIHWVRQVPGKGLEWMGGFDPEEGETIFAQEFRDRVTLTEDTSPDTAYMELSSLKSEDAAVYYCTTPRYCNNGICYDYWGQGTLVTVSS
VL: DIQMTQSPSSLSASVGDRVTITCRASQSISNYLNWYQQKPGKAPKLLIYTASSLQSGVPSRFSGSGSGTDFTLTISSLQTEDFATYYCQQSYSNFPITFGQGTRLEIKR
B2: H1H21227N: "Three anti-MSR1 antibodies ... (21227N, 21231N, 21234N) were produced with the original human Fcγ portion" (antibody, V domains shown)
VH: B1 VH
VL: B1 VL
B3: H1H21231N: "Three anti-MSR1 antibodies ... (21227N, 21231N, 21234N) were produced with the original human Fcγ portion" (antibody, V domains shown)
VH: EVQLVESGGGLVQPGGSLRLSCAASGFTFSDHYMDWVRQAPGKGLEWVGRTRNKANSHTTEYTASVTGRFTISRDDSRNSLYLQMNSLKTEDTAVYYCVRAGIIGTLFDYWGQGTLVTVSS
VL: B1 VL with S7F, N31S, Y32F, Y36F, L46F, T50A, T80P, N94S, F95P
B4: H1H27729P-N297Q: anti-MSR1 antibody; "Antibody H1H27729P-N297Q showed no inhibition of DiI-OxLDL uptake" (antibody, V domains shown)
VH: QVQLVESGGGLVKPGGSLRLSCAASGFIFSDYYMSWIRQAPGKGLEWVSYISSSGTTIYGDSVKGRFTMSRDNAKNSLYLQMNSLRAEDTAVYYCARNYALFDYWGQGTLVTVSS
VL: DIQMTQSPSSLSASVGDRVTITCQASQDISKYLNWYQQKPGKAPKLLIYYTSNLETGVPSRFSGSGSGTDFTFTISSLQPEDIATYYCHQSDYLPFTFGPGTKVDIKR

Legend:
[1] = target: T1, Ac-LDL binding to His9-hMSR1 (Homo sapiens, UniProt P21757); test: Competition sandwich ELISA, Ac-LDL; settings: anti-MSR1 antibody 100 nM, 50 pM Ac-LDL
T1 construct: human MSR1 extracellular domain expressed with a N-terminal nonahistidine tag; purchased R&D Systems 2708-MS
T1 sequence (P21757 77-451 limits assumed): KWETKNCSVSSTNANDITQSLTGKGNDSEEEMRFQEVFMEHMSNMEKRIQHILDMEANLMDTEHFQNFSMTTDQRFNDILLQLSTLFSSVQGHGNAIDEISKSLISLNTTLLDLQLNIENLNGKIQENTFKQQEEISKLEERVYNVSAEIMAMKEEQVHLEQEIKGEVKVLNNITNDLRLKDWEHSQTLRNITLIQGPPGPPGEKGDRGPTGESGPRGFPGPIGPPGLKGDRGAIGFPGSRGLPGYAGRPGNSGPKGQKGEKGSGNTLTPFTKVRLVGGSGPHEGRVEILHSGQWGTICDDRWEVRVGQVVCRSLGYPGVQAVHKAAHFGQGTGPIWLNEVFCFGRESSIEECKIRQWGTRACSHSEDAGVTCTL
Experimental: (§1) The ability of anti-MSR1 antibodies disclosed herein to block the binding of various ligands to human MSR1 was measured using three competition sandwich ELISA assays. The ligands used in the assays were: (1) acetylated LDL (Ac-LDL), (2) oxidized LDL (Ox-LDL), and (3) advanced glycation end-products of bovine serum albumin (AGE-BSA).
(§2) Anti-MSR1 antibodies or isotype control antibodies were serially diluted as appropriate for each tested ligand and added in duplicate for each serial dilution set to microtiter plates coated with His9-hMSR1. Buffer alone was also added to wells on each coat. […] This assay was conducted in four different assay runs.
(§3) Data analysis was performed using a sigmoidal dose-response model within Prism™ software (GraphPad). Percent blockade at maximum concentration of the antibody tested in each assay was calculated as an indicator of the ability of the antibodies to block the binding of Ac-LDL, Ox-LDL or biot-AGE-BSA to His9-hMSR1 on the plate relative to the baseline of the assay. In the calculation, binding signal of the same concentrations of Ac-LDL, Ox-LDL, or biot-AGE-BSA used for the assays in the absence of antibody was referenced as 100% binding or 0% blocking, while the baseline of the assay, defined as binding signal of the sample of buffer without MSR1 ligands or antibody, was referenced as 0% binding or 100% blocking. The maximum percent blockade at the highest concentration of antibody tested in each assay are reported for all antibodies.

[2] = target: T2, Ox-LDL binding to His9-hMSR1 (Homo sapiens, UniProt P21757); test: Competition sandwich ELISA, Ox-LDL; settings: anti-MSR1 antibody 500 nM, Ox-LDL 10 nM
T2 construct: human MSR1 extracellular domain expressed with a N-terminal nonahistidine tag; purchased R&D Systems 2708-MS
T2 sequence (P21757 77-451 limits assumed): T1 sequence (P21757 77-451 limits assumed)
Experimental: as §1, §2, §3

[3] = target: T3, biot-AGE-BSA binding to His9-hMSR1 (Homo sapiens, UniProt P21757); test: Competition sandwich ELISA, biot-AGE-BSA; settings: anti-MSR1 antibody 300 nM, 400 pM biot-AGE-BSA
T3 construct: human MSR1 extracellular domain expressed with a N-terminal nonahistidine tag; purchased R&D Systems 2708-MS
T3 sequence (P21757 77-451 limits assumed): T1 sequence (P21757 77-451 limits assumed)
Experimental: as §1
For the assay, recombinant monomeric human MSR1 protein comprised of a portion of the human MSR1 extracellular domain expressed with a N-terminal 9-Histidine tag (SEQ ID NO: 688) (His9-hMSR1; R&D Systems, Cat #2708-MS) was coated at a concentration of […] in PBS on a 96-well microtiter plate overnight at 4° C. for use in competition ELISA assays with Ac-LDL, Ox-LDL, or biotinylated-AGE-BSA (“biot-AGE-BSA”). […] Anti-MSR1 antibodies or isotype control antibodies were serially diluted as appropriate for each tested ligand and added in duplicate for each serial dilution set to microtiter plates coated with His9-hMSR1. Buffer alone was also added to wells on each coat. After 1 hour incubation at room temperature, without wash, a final constant concentration of 50 pM Ac-LDL (Life Technologies/ThermoFisher Scientific, Cat #L-35354), 5 nM or 10 nM Ox-LDL (Alfa Aesar, Cat #J65591), or 400 pM biot-AGE-BSA (R&D Systems, Cat #BT4127) were added to plates with His9-hMSR1, and the plates were incubated for an additional 1 hour at room temperature. (Concentrations of Ac-LDL, Ox-LDL and biot-AGE-BSA for antibody inhibition assays were selected from the approximate midway point within the linear portion of individual binding curves of Ac-LDL, Ox-LDL or biot-AGE-BSA to plate-coated His9-hMSR1.) Wells were washed, and plate-bound Ac-LDL or Ox-LDL were detected with anti-LDL rabbit antibody (Alfa Aesar, Cat #J64398) in combination with anti-rabbit IgG (H+L) specific donkey polyclonal antibodies conjugated with horseradish peroxidase (HRP) (JacksonImmunoResearch, Cat #711-035-152) and biot-AGE-BSA was detected with a streptavidin-HRP (ThermoFisher Scientific, Cat #N200). Plates were developed using TMB substrate solution (BD Biosciences, Cat #51-2606KC & Cat #51-2607KC) according to manufacturer's recommendation and absorbance at 450 nm was measured on a Victor™ Multilabel Plate Reader (PerkinElmer™). This assay was conducted in four different assay runs.
as §3, with “antibodies. Negative percent blockade numbers reflected higher MSR1 ligands binding to plate coated His9-hMSR1 in the presence of antibodies.” for “antibodies.”

His9-hMSR1 = target: T4, His9-hMSR1 (Homo sapiens, UniProt P21757); test: Cross-competition between anti-MSR1 antibodies (OCTET bio-layer interferometry); type: binding; settings: label = first mAb (mAb-1) on His9-hMSR1 captured with anti-Penta-His Octet biosensors; value = competing mAb-2
T4 construct: human MSR1 extracellular domain expressed with a N-terminal nonahistidine tag; purchased R&D Systems 2708-MS
T4 sequence (P21757 77-451 limits assumed): T1 sequence (P21757 77-451 limits assumed)
Experimental: Binding competition between different anti-MSR1 antibodies was assessed using a real time, label-free bio-layer interferometry assay on an OCTET® HTX biosensor platform (Pall FortéBio Corp., Menlo Park, Calif.). The experiment was performed at 25° C. in 10 mM HEPES, 150 mM NaCl, 3 mM EDTA, 0.05% v/v Surfactant Tween-20, and 1 mg/mL BSA, pH 7.4 (HBS-EBT) buffer with the plate shaking at the speed of 1000 rpm.
To assess whether different antibodies are able to compete with one another for binding to their respective epitopes on the recombinant human MSR1 extracellular domain expressed with a N-terminal nonahistidine tag (SEQ ID NO: 688) (His9-hMSR1; R&D Systems, Cat #2708-MS), around […] of His9-hMSR1 was first captured onto anti-Penta-His antibody coated OCTET® biosensor tips (“Penta-His” disclosed as SEQ ID NO: 690) (Pall FortéBio Corp., #18-5122) by submerging the biosensor tips for 45 seconds into wells containing a […] solution of His9-hMSR1. The antigen-captured biosensor tips were then saturated with a first anti-MSR1 monoclonal antibody (subsequently referred to as “mAb-1”) by immersion into wells containing a […] solution of mAb-1 for 4 minutes. The biosensor tips were then submerged into wells containing a […] solution of a second anti-MSR1 monoclonal antibody (subsequently referred to as “mAb-2”) for 4 minutes. All of the biosensor tips were washed in HBS-EBT buffer in between each step of the experiment. The real-time binding response was monitored during the course of the experiment and the binding response at the end of each step was recorded. […] Table 17 explicitly defines the relationships of antibodies competing in both directions, independent of the order of binding.

[4] = target: T5, MSR1-mediated DiI-OxLDL uptake in HEK293.Myc.hMSR1 cells (Homo sapiens, UniProt P21757); test: Ligand uptake assay, DiI-OxLDL; type: cell-based
T5 construct: expressed in transfected cells; host or cells: HEK293 (lentiviral transduction, hygromycin selection)
T5 sequence (P21757 1-451): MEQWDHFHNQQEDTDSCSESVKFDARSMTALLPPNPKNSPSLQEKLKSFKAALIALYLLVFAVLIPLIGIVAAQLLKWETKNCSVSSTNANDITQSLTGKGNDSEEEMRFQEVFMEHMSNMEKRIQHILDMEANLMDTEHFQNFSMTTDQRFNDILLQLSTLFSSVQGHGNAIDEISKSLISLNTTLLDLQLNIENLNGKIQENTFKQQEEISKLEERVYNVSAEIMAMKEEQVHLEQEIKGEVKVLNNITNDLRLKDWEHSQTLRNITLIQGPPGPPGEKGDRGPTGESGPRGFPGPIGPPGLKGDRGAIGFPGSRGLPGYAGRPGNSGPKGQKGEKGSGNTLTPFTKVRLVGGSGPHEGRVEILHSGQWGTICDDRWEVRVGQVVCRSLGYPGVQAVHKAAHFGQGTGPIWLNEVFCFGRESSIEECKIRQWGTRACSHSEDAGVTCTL
Experimental: The resulting cell line, referred to here as “HEK293.Myc.hMSR1”, was selected and maintained in DMEM containing 10% FBS, NEAA, penicillin/streptomycin, L-glutamine, and 100 μg/mL hygromycin.
After 30 minutes, either oxidized or acetylated low-density lipoprotein (LDL) labeled with 1,1′ dioctadecyl-3,3,3′,3′-tetramethylindocarbocyanine perchlorate (referred to as “DiI-OxLDL” or “DiI-AcLDL,” respectively) was added to the cells at a constant concentration of 10 μg/mL. […] Results were analyzed using nonlinear regression (4-parameter logistics) with the Prism 7 program to obtain EC50 and IC50 values. The percentage of inhibition was calculated with the Relative Fluorescent Unit (RFU) values by using the following equation: […]
In the equation, “RFUBaseline” is the fluorescence value from the cells treated with 10 μg/mL ligand without antibodies, “RFUInhibition” is the minimum fluorescence value with for a particular antibody with 10 μg/mL ligand, and “RFUBackground” is the fluorescence value from cells without any ligand or antibodies.

Molecule | % Blocking of Ac-LDL binding to His9-hMSR1 [1] [%] | % Blocking of Ox-LDL binding to His9-hMSR1 [2] [%] | % Blocking of biot-AGE-BSA binding to His9-hMSR1 [3] [%] | mAb-2 antibodies which Compete with mAb-1 (His9-hMSR1) | inhibition of DiI-OxLDL uptake (in words) [4] | IC50, Dil-Oxidized LDL ([4]; 10 μg/mL DiI-OxLDL) | % Inhibition, Dil-Oxidized LDL ([4]; maximum inhibition of uptake, 10 μg/mL DiI-OxLDL)
B1 | 105 | 97 | 96 | Data Inconclusive** |  |  | 
B2 | 105 | 100 | 99 | Data Inconclusive** |  |  | 
B3 | −62 | 22 | −44 |  |  |  | 
B4 |  |  |  | Data Inconclusive** | no inhibition of DiI-OxLDL uptake | no inhibition | no inhibition
